Here are results for four molecules from PMC6987120, “Structural insights into ATP hydrolysis by the MoxR ATPase RavA and the LdcI-RavA cage-like complex” (Communications Biology, 2020).

Usually stoichiometry N stands for the number of molecules, sites or subunits per partner or assembly. The term Kd denotes the constant that tells how readily two partners part at equilibrium. Higher therefore signals lower affinity. One may read the koff as the rate constant with which the complex falls apart. The low end stands for slow dissociation, the high end for fast dissociation. Broadly, the kon is a measure of how fast the partners come together. Higher therefore signals faster complex formation.

Values joined by “and” are separate entries in the source; they are usually repeats but may differ in a detail not shown here. Identical values can stand only once.

B1: acid stress-inducible lysine decarboxylase LdcI (enzyme, E. coli)
chain: MNVIAILNHMGVYFKEEPIRELHRALERLNFQIVYPNDRDDLLKLIENNARLCGVIFDWDKYNLELCEEISKMNENLPLYAFANTYSTLDVSLNDLRLQISFFEYALGAAEDIANKIKQTTDEYINTILPPLTKALFKYVREGKYTFCTPGHMGGTAFQKSPVGSLFYDFFGPNTMKSDISISVSELGSLLDHSGPHKEAEQYIARVFNADRSYMVTNGTSTANKIVGMYSAPAGSTILIDRNCHKSLTHLMMMSDVTPIYFRPTRNAYGILGGIPQSEFQHATIAKRVKETPNATWPVHAVITNSTYDGLLYNTDFIKKTLDVKSIHFDSAWVPYTNFSPIYEGKCGMSGGRVEGKVIYETQSTHKLLAAFSQASMIHVKGDVNEETFNEAYMMHTTTSPHYGIVASTETAAAMMKGNAGKRLINGSIERAIKFRKEIKRLRTESDGWFFDVWQPDHIDTTECWPLRSDSTWHGFKNIDNEHMYLDPIKVTLLTPGMEKDGTMSDFGIPASIVAKYLDEHGIVVEKTGPYNLLFLFSIGIDKTKALSLLRALTDFKRAFDLNLRVKNMLPSLYREDPEFYENMRIQELAQNIHKLIVHHNLPDLMYRAFEVLPTMVMTPYAAFQKELHGMTEEVYLDEMVGRINANMILPYPPGVPLVMPGEMITEESRPVLEFLQMLCEIGAHYPGFETDIHGAYRQADGRYTVKVLKEESKK
notes: LdcI, inducible lysine decarboxylase of E. coli; Decamer in the cryo-EM maps of the cage; Buffers held 0.1 mM PLP; source: ppGpp-/- E. coli strain (MG1655 ΔrelA ΔspoT), purified as previously described; copies: 10
B2: biotinylated RavA-AviTag (enzyme)
chain: not shown
modifications: biotin (biotinylated AviTag)
notes: RavA of E. coli cloned in the p11 vector (N-terminal cleavable HIS-tag) with a C-terminal AviTag added; Incubated with 1 mM ADP for 10 min before BLI; also called AviTag-containing RavA; source: E. coli BL-21 DE3 (100 μM D-biotin in the LB medium, overnight, 20 °C), purified to homogeneity; not shown: AviTag, C-terminal, kept
B3: biotinylated RavA-AviTag (enzyme)
chain: not shown
modifications: biotin (biotinylated AviTag)
notes: MoxR AAA+ ATPase RavA of E. coli, cloned in the p11 vector (N-terminal cleavable HIS-tag) with a C-terminal AviTag added; The methods describe biotinylation during expression (D-biotin in the medium), the results say 'in vitro biotinylated'; source: E. coli BL-21 DE3 (100 μM D-biotin in the LB medium, overnight, 20 °C), purified to homogeneity; not shown: AviTag, C-terminal, kept
B4: MoxR AAA+ ATPase RavA (enzyme)
chain: not shown
notes: RavA, MoxR family AAA+ ATPase of E. coli, encoded by the ravAviaA operon; cloned in the p11 vector (N-terminal cleavable HIS-tag); Hexamer (spiral or C2-symmetric closed ring) by cryo-EM with ADP; also called free RavA; RavA-ADP

Data set [1] concerns the molecule itself. The experiment in a line: cryo-EM structure; purified LdcI and RavA mixed at about 4.5:2 RavA:LdcI monomers; 20 mM Tris pH 7.9, 300 mM NaCl, 2 mM ADP, 10 mM MgCl2, 0.1 mM PLP, 1 mM DTT; room temperature; maps of Class 1 and Class 2 without symmetry imposed.
The target in data set [2] is B1. The experiment in a line: BLI; biotinylated RavA-AviTag (pre-incubated with 1 mM ADP) immobilised on streptavidin biosensors; LdcI 500-31.25 nM in solution; Octet RED96, 293 K; pH 8 (Tris), 7 (HEPES), 6.5 and 5 (MES), 300 mM NaCl, 10 mM MgCl2, 10% glycerol, 0.1% BSA, 0.02% Tween-20, 1 mM ADP, 1 mM DTT, 0.1 mM PLP; 1:1 interaction model; averages over the four pH values. The conditions noted are these: both partners purified. (Biolayer interferometry detects binding as a change in optical thickness at a sensor tip.)

The target in data set [3] is T1, LdcI (acid stress-inducible lysine decarboxylase) (E. coli, UniProt P0A9H3 1-715).
T1 construct: Inducible lysine decarboxylase LdcI of E. coli; 0.1 mM PLP in the BLI buffer; also called lysine decarboxylase LdcI; source: E. coli ppGpp-/- strain MG1655 ΔrelA ΔspoT, purified as previously described
T1 sequence: B1 chain
The experiment in a line: BLI; biotinylated RavA-AviTag incubated with 1 mM ADP for 10 min, on streptavidin biosensors, quenched with biocytin; LdcI 500-31.25 nM in solution; pH 5.0 (1x MES pH 5, with 1x kinetics buffer, 1 mM ADP, 1 mM DTT, 0.1 mM PLP); 293 K, Octet RED96; 1:1 interaction model. The conditions noted are these: both partners purified.

Data set [4] deals with T1, LdcI (acid stress-inducible lysine …). Description: BLI; biotinylated RavA-AviTag on streptavidin biosensors WITHOUT prior incubation with ADP, quenched with biocytin; LdcI 500-31.25 nM in solution; pH 7.0 (1x HBS: 25 mM HEPES, 300 mM NaCl, 10 mM MgCl2, 10% glycerol, with 1x kinetics buffer, 1 mM DTT, 0.1 mM PLP); 293 K, Octet RED96; 1:1 interaction model. The conditions noted are these: both partners purified.

The target is the same in data set [5]. The experiment in a line: BLI; biotinylated RavA-AviTag incubated with 1 mM ADP for 10 min, on streptavidin biosensors, quenched with biocytin; LdcI 500-31.25 nM in solution; pH 7.0 (1x HBS: 25 mM HEPES, 300 mM NaCl, 10 mM MgCl2, 10% glycerol, with 1x kinetics buffer, 1 mM ADP, 1 mM DTT, 0.1 mM PLP); 293 K, Octet RED96; 1:1 interaction model. The conditions noted are these: both partners purified.

The target is the same in data set [6]. Description: BLI; biotinylated RavA-AviTag incubated with 1 mM ADP for 10 min, on streptavidin biosensors, quenched with biocytin; LdcI 500-31.25 nM in solution; pH 6.5 (1x MES: 25 mM MES, 300 mM NaCl, 10 mM MgCl2, 10% glycerol, with 1x kinetics buffer, 1 mM ADP, 1 mM DTT, 0.1 mM PLP); 293 K, Octet RED96; 1:1 interaction model. The conditions noted are these: both partners purified.

For data set [7] the target is unchanged. The experiment in a line: BLI; biotinylated RavA-AviTag incubated with 1 mM ADP for 10 min, on streptavidin biosensors, quenched with biocytin; LdcI 500-31.25 nM in solution; pH 8.0 (1x TBS: 25 mM Tris, 300 mM NaCl, 10 mM MgCl2, 10% glycerol, with 1x kinetics buffer, 1 mM ADP, 1 mM DTT, 0.1 mM PLP); 293 K, Octet RED96; 1:1 interaction model. The conditions noted are these: both partners purified.

Data set [8] has as its target B1. Description: cryo-EM structure; purified LdcI and RavA mixed at about 4.5:2 RavA:LdcI monomers; 20 mM Tris pH 7.9, 300 mM NaCl, 2 mM ADP, 10 mM MgCl2, 0.1 mM PLP, 1 mM DTT; room temperature; maps of Class 1 and Class 2 without symmetry imposed. The conditions noted are these: both partners purified.

With B1, in data set [1], the “stoichiometry N” value was 10.

As to B2, in data set [2], the Kd was 20 nM to 40 nM (2×) and 29.7 nM; the koff came to 0.000811 s⁻¹; the kon came out at 26800 M⁻¹ s⁻¹.

Turning to B3, the equilibrium dissociation constant (Kd) was determined as 27.1 nM in data set [3]; 46.3 nM in data set [4]; 26.7 nM in data set [5]; 20.9 nM in data set [6]; 44.2 nM in data set [7]. In addition, the koff in data set [3] amounted to 0.00074 s⁻¹; in data set [4], 0.000987 s⁻¹; in data set [5] it was 0.000659 s⁻¹; in data set [6], 0.000538 s⁻¹; in data set [7], 0.00131 s⁻¹. For the same molecule, the kon is 27300 M⁻¹ s⁻¹ in data set [3]; 21300 M⁻¹ s⁻¹ in data set [4]; 24700 M⁻¹ s⁻¹ in data set [5]; 25700 M⁻¹ s⁻¹ in data set [6]; 29600 M⁻¹ s⁻¹ in data set [7].

Take B4: the binding result in data set [8] is listed as “binds”. Moreover, in data set [1], the “stoichiometry N” value was 6.
